The text below walks through data of US20030148956A1 (PROCTER AND GAMBLE, published 2003).

For one assay, the target named is T1, CRF2R.
T1 sequence (Q13324 whole entry, species assumed, looked up): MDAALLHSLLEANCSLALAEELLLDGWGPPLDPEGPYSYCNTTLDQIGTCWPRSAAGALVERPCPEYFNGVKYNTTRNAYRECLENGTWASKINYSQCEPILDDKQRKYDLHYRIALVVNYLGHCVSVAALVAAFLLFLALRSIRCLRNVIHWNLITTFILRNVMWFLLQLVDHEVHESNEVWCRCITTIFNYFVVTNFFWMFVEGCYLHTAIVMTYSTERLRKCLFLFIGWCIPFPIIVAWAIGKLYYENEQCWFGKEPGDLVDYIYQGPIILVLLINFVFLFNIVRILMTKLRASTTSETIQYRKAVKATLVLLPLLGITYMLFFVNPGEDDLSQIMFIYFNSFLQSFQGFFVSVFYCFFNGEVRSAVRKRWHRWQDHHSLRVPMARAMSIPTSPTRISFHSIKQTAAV
The experiment in a line: cell-based or functional assay.

The next assay has as its target CRF1R. Put plainly: cell-based or functional assay.

Ends that are not written are not given here.

On to IVLSLDVPIGLLQILLEQAKAEAAREQATTNARILARV-NH2 [SEQ ID NO 112], for which, in the assay with CRF2R, the “CRF2R EC50” value came out at 12.3 nM and the “CRF2R Emax” value came to 100%. In addition, in the assay with CRF1R, the “CRF1R EC50” value was greater than 100 nM and the “CRF1R Emax” value was determined as 10%.
Turning to IVLSLDVPIGLLQILLEQERQRAAREQATTNARILARV-NH2 [SEQ ID NO 111], in the assay with CRF2R, the “CRF2R EC50” value was found to be 10.9 nM and the “CRF2R Emax” value came out at 99%. For the same molecule, in the assay with CRF1R, the “CRF1R EC50” value was greater than 100 nM and the “CRF1R Emax” value was 9%.
As to IVLSLDVPGPLLQILLEQTKQEAAREQATTNARILARV-NH2 [SEQ ID NO 5], in the assay with CRF2R, the “CRF2R EC50” value is 100 nM and the “CRF2R Emax” value came out at 12%. Also, in the assay with CRF1R, the “CRF1R EC50” value was 100 nM and the “CRF1R Emax” value was determined as 9%.
On to SQEPPISLDLPLGLLREVLEMTKADQLAQQAHSNRKLLDIA-NH2 [SEQ ID NO 90], for which, in the assay with CRF2R, the “CRF2R EC50” value turned out to be 100 nM and the “CRF2R Emax” value came out at 12.2%. In addition, in the assay with CRF1R, the “CRF1R EC50” value came out at 100 nM and the “CRF1R Emax” value amounted to 4%.
As for SQEPPISLDLPTYLLREVLEMTKADQLAQQAHSNRKLLDIA-NH2 [SEQ ID NO 106], in the assay with CRF2R, the “CRF2R EC50” value was determined as 100 nM and the “CRF2R Emax” value was 6.1%. Besides, in the assay with CRF1R, the “CRF1R EC50” value was 100 nM and the “CRF1R Emax” value was determined as 4.8%.
SQEPPISLDLPTHLLREVLEMTKADQLAQQAHSNRKLLDIA-NH2 [SEQ ID NO 99]: in the assay with CRF2R, the “CRF2R EC50” value was 100 nM and the “CRF2R Emax” value amounted to 4.35%. In addition, in the assay with CRF1R, the “CRF1R EC50” value is 100 nM and the “CRF1R Emax” value is 4.35%.
With SQEPPISLDLTIHLLREVLEMTKADQLAQQAHSNRKLLDIA-NH2 [SEQ ID NO 87], in the assay with CRF2R, the “CRF2R EC50” value turned out to be 100 nM and the “CRF2R Emax” value is 14.7%. Besides, in the assay with CRF1R, the “CRF1R EC50” value came out at 100 nM and the “CRF1R Emax” value was 5.3%.
As to SQEPPISLDLTIGLLREVLEMTKADQLAQQAHSNRKLLDIA-NH2 [SEQ ID NO 86], in the assay with CRF2R, the “CRF2R EC50” value came to 100 nM and the “CRF2R Emax” value worked out at 8.1%. Further, in the assay with CRF1R, the “CRF1R EC50” value came to 100 nM and the “CRF1R Emax” value came to 4.6%.
As for SQEPPISLDLPTGLLREVLEMTKADQLAQQAHSNRKLLDIA-NH2 [SEQ ID NO 98], in the assay with CRF2R, the “CRF2R EC50” value came out at 100 nM and the “CRF2R Emax” value was determined as 5.5%. Besides, in the assay with CRF1R, the “CRF1R EC50” value was 100 nM and the “CRF1R Emax” value amounted to 4%.
As to IVLSLDVPIGLLQILLEQAKQRAAREQATTNARILARV-NH2 [SEQ ID NO 110], in the assay with CRF2R, the “CRF2R EC50” value came out at 11 nM and the “CRF2R Emax” value worked out at 100%. Moreover, in the assay with CRF1R, the “CRF1R EC50” value was greater than 100 nM and the “CRF1R Emax” value was 9%.
With SQEPPISLDLPLQLLREVLEMTKADQLAQQAHSNRKLLDIA-NH2 [SEQ ID NO 95], in the assay with CRF2R, the “CRF2R EC50” value was 100 nM and the “CRF2R Emax” value worked out at 8.25%. Besides, in the assay with CRF1R, the “CRF1R EC50” value was 100 nM and the “CRF1R Emax” value was found to be 5.55%.
Regarding IVLSLDVPIGLLQILLEQTKADAAREQATTNARILARV-NH2 [SEQ ID NO 108], in the assay with CRF2R, the “CRF2R EC50” value worked out at 79 nM and the “CRF2R Emax” value is 97%. In the assay with CRF1R, the “CRF1R EC50” value was greater than 100 nM and the “CRF1R Emax” value was 3%.
With SQEPPISLDLPIQLLREVLEMTKADQLAQQAHSNRKLLDIA-NH2 [SEQ ID NO 100], in the assay with CRF2R, the “CRF2R EC50” value stood at 100 nM and the “CRF2R Emax” value turned out to be 9.85%. In addition, in the assay with CRF1R, the “CRF1R EC50” value came to 100 nM and the “CRF1R Emax” value was 6.25%.
As for IVLSLDVPIGLLQILLEQAKARAAREQATTNARILARV-NH2 [SEQ ID NO 109], in the assay with CRF2R, the “CRF2R EC50” value amounted to 11.8 nM. The “CRF1R EC50” value with CRF1R worked out at 100 nM.
For the molecule SQEPPISLDLPIHLLREVLEMTKADQLAQQAHSNRKLLDIA-NH2 [SEQ ID NO 94], in the assay with CRF2R, the “CRF2R EC50” value was determined as 100 nM and the “CRF2R Emax” value was found to be 6.15%. In the assay with CRF1R, the “CRF1R EC50” value stood at 100 nM and the “CRF1R Emax” value worked out at 7.3%.
In the case of IVLSLDVPIGLLQILLEQARQRAAREQATTNARILARV-NH2 [SEQ ID NO 114], in the assay with CRF2R, the “CRF2R EC50” value amounted to 3.42 nM and the “CRF2R Emax” value is 100%. In the assay with CRF1R, the “CRF1R EC50” value is greater than 100 nM and the “CRF1R Emax” value stood at 6%.
With SQEPPISLDLPFELLREVLEMTKADQLAQQAHSNRKLLDIA-NH2 [SEQ ID NO 97], in the assay with CRF2R, the “CRF2R EC50” value amounted to 100 nM and the “CRF2R Emax” value is 7.6%. Further, in the assay with CRF1R, the “CRF1R EC50” value is 100 nM and the “CRF1R Emax” value was found to be 4.25%.
On to SQEPPISLDLPLHLLREVLEMTKADQLAQQAHSNRKLLDIA-NH2 [SEQ ID NO 102], for which, in the assay with CRF2R, the “CRF2R EC50” value came out at 100 nM and the “CRF2R Emax” value amounted to 13.5%. Besides, in the assay with CRF1R, the “CRF1R EC50” value stood at 100 nM and the “CRF1R Emax” value worked out at 7.8%.
As for SQEPPISLDLPTQLLREVLEMTKADQLAQQAHSNRKLLDIA-NH2 [SEQ ID NO 105], in the assay with CRF2R, the “CRF2R EC50” value was found to be 100 nM and the “CRF2R Emax” value worked out at 9.15%. Moreover, in the assay with CRF1R, the “CRF1R EC50” value was determined as 100 nM and the “CRF1R Emax” value was determined as 5.2%.
For the molecule SQEPPISLDLPFYLLREVLEMTKADQLAQQAHSNRKLLDIA-NH2 [SEQ ID NO 96], in the assay with CRF2R, the “CRF2R EC50” value was 100 nM and the “CRF2R Emax” value stood at 12.5%. In the assay with CRF1R, the “CRF1R EC50” value came to 100 nM and the “CRF1R Emax” value was found to be 16.3%.
With SQEPPISLDLPFQLLREVLEMTKADQLAQQAHSNRKLLDIA-NH2 [SEQ ID NO 91], in the assay with CRF2R, the “CRF2R EC50” value was 100 nM and the “CRF2R Emax” value was determined as 7.1%. In the assay with CRF1R, the “CRF1R EC50” value turned out to be 100 nM and the “CRF1R Emax” value amounted to 4%.
For the molecule IVLSLDVPIGLLQILLEQERAEAAREQATTNARILARV-NH2 [SEQ ID NO 113], in the assay with CRF2R, the “CRF2R EC50” value came out at 11.3 nM and the “CRF2R Emax” value amounted to 98%. Besides, in the assay with CRF1R, the “CRF1R EC50” value is greater than 100 nM and the “CRF1R Emax” value is 4%.
Regarding SQEPPISLDLTFGLLREVLEMTKADQLAQQAHSNRKLLDIA-NH2 [SEQ ID NO 88], in the assay with CRF2R, the “CRF2R EC50” value is 100 nM and the “CRF2R Emax” value came out at 12.6%. In the assay with CRF1R, the “CRF1R EC50” value was 100 nM and the “CRF1R Emax” value stood at 11.2%.
Regarding SQEPPISLDLPLYLLREVLEMTKADQLAQQAHSNRKLLDIA-NH2 [SEQ ID NO 101], in the assay with CRF2R, the “CRF2R EC50” value was 100 nM and the “CRF2R Emax” value stood at 6.95%. In the assay with CRF1R, the “CRF1R EC50” value stood at 100 nM and the “CRF1R Emax” value came to 7.35%.
SQEPPISLDLPFHLLREVLEMTKADQLAQQAHSNRKLLDIA-NH2 [SEQ ID NO 104]: in the assay with CRF2R, the “CRF2R EC50” value was 100 nM and the “CRF2R Emax” value was 4.5%. For the same molecule, in the assay with CRF1R, the “CRF1R EC50” value came to 100 nM and the “CRF1R Emax” value was found to be 11.1%.
With SQEPPISLDLPFGLLREVLEMTKADQLAQQAHSNRKLLDIA-NH2 [SEQ ID NO 103], in the assay with CRF2R, the “CRF2R EC50” value worked out at 100 nM and the “CRF2R Emax” value is 4.85%. In addition, in the assay with CRF1R, the “CRF1R EC50” value amounted to 100 nM and the “CRF1R Emax” value was 5.75%.
As for SQEPPISLDLPTELLREVLEMTKADQLAQQAHSNRKIIDIA-NH2 [SEQ ID NO 92], in the assay with CRF2R, the “CRF2R EC50” value is 100 nM and the “CRF2R Emax” value is 15.8%. In the assay with CRF1R, the “CRF1R EC50” value came out at 100 nM and the “CRF1R Emax” value came to 4.6%.
As to IVLSLDVPIGLLQILLEQARARAAREQATTQARILARV-NH2 [SEQ ID NO 9], in the assay with CRF2R, the “CRF2R EC50” value stood at 100 nM and the “CRF2R Emax” value came to 34%. In addition, in the assay with CRF1R, the “CRF1R EC50” value came out at 100 nM and the “CRF1R Emax” value was 10%.
With SQEIVLSLDVPIGLLREVLEMTKADQLAQQAHSNRKLLDIA-NH2 [SEQ ID NO 7], in the assay with CRF2R, the “CRF2R EC50” value amounted to 100 nM and the “CRF2R Emax” value amounted to 19%. For the same molecule, in the assay with CRF1R, the “CRF1R EC50” value amounted to 100 nM and the “CRF1R Emax” value was found to be 4%.
In the case of SQEPPISLDLPIGLLREVLEMTKADQLAQQAHSNRKLLDIA-NH2 [SEQ ID NO 93], in the assay with CRF2R, the “CRF2R EC50” value was 100 nM and the “CRF2R Emax” value is 6.4%. Also, in the assay with CRF1R, the “CRF1R EC50” value was determined as 100 nM and the “CRF1R Emax” value amounted to 5%.
